Experimental data reported in US12570711B2, “Platforms for co-stimulation, novel car designs and other enhancements for adoptive cellular therapy” (Angeles Therapeutics, Inc., priority 2017, dated 2026).

B1: hNEMO-K277A-DeltaV249-K255: mutant lacking aminoacid residues V249-K255 of human NEMO and carrying the K277A mutation (protein)
chain: MNRHLWKSQLCEMVQPSGGPAADQDVLGEESPLGKPAMLHLPSEQGAPETLQRCLEENQELRDAIRQSNQILRERCEELLHFQASQREEKEFLMCKFQEARKLVERLGLEKLDLKRQKEQALREVEHLKRCQQQMAEDKASVKAQVTSLLGELQESQSRLEAATKECQALEGRARAASEQARQLESEREALQQQHSVQVDQLRMQGQSVEAALRMERQAASEEKRKLAQLQVAYHQLFQEYDNHIKSSRGMQLEDLKQQLQQAEEALVAAQEVIDKLKEEAEQHKIVMETVPVLKAQADIYKADFQAERQAREKLAEKKELLQEQLEQLQREYSKLKASCQESARIEDMRKRHVEVSQAPLPPAPAYLSSPLALPSQRRSPPEEPPDFCCPKCQYQAPDMDTLQIHVMECIE
B2: IKK1-S176E-S180E: constitutive active mutant of IKKa/IKK1 (protein)
chain: MERPPGLRPGAGGPWEMRERLGTGGFGNVCLYQHRELDLKIAIKSCRLELSTKNRERWCHEIQIMKKLNHANVVKACDVPEELNILIHDVPLLAMEYCSGGDLRKLLNKPENCCGLKESQILSLLSDIGSGIRYLHENKIIHRDLKPENIVLQDVGGKIIHKIIDLGYAKDVDQGELCTEFVGTLQYLAPELFENKPYTATVDYWSFGTMVFECIAGYRPFLHHLQPFTWHEKIKKKDPKCIFACEEMSGEVRFSSHLPQPNSLCSLIVEPMENWLQLMLNWDPQQRGGPVDLTLKQPRCFVLMDHILNLKIVHILNMTSAKIISFLLPPDESLHSLQSRIERETGINTGSQELLSETGISLDPRKPASQCVLDGVRGCDSYMVYLFDKSKTVYEGPFASRSLSDCVNYIVQDSKIQLPIIQLRKVWAEAVHYVSGLKEDYSRLFQGQRAAMLSLLRYNANLTKMKNTLISASQQLKAKLEFFHKSIQLDLERYSEQMTYGISSEKMLKAWKEMEEKAIHYAEVGVIGYLEDQIMSLHAEIMGLQKSPYGRRQGDLMESLEQRAIDLYKQLKHRPSDHSYSDSTEMVKIIVHTVQSQDRVLKELFGHLSKLLGCKQKIIDLLPKVEVALSNIKEADNTVMFMQGKRQKEIWHLLKIACTQSSARSLVGSSLEGAVTPQTSAWLPPTSAEHDHSLSCVVTPQDGETSAQMIEENLNCLGHLSTIIHEANEEQGNSMMNLDWSWLTE
B3: mNEMO-K270A: mouse NEMO-K270A mutant, known to activate NF-κB constitutively (protein)
chain: MNKHPWKNQLSETVQPSGGPAEDQDMLGEESSLGKPAMLHLPSEQGTPETLQRCLEENQELRDAIRQSNQMLRERCEELLHFQVSQREEKEFLMCKFQEARKLVERLSLEKLDLRSQREQALKELEQLKKCQQQMAEDKASVKAQVTSLLGELQESQSRLEAATKDRQALEGRIRAVSEQVRQLESEREVLQQQHSVQVDQLRMQNQSVEAALRMERQAASEEKRKLAQLQAAYHQLFQDYDSHIKSSKGMQLEDLRQQLQQAEEALVAAQELIDKLKEEAEQHKIVMETVPVLKAQADIYKADFQAERHAREKLVEKKEYLQEQLEQLQREFNKLKVGCHESARIEDMRKRHVETPQPPLLPAPAHHSFHLALSNQRRSPPEEPPDFCCPKCQYQAPDMDTLQIHVMECIE
B4: IKK2-S177E-S181E: constitutive active mutant of IKKβ/IKK2 (protein)
chain: MSWSPSLTTQTCGAWEMKERLGTGGFGNVIRWHNQETGEQIAIKQCRQELSPRNRERWCLEIQIMRRLTHPNVVAARDVPEGMQNLAPNDLPLLAMEYCQGGDLRKYLNQFENCCGLREGAILTLLSDIASALRYLHENRIIHRDLKPENIVLQQGEQRLIHKIIDLGYAKELDQGELCTEFVGTLQYLAPELLEQQKYTVTVDYWSFGTLAFECITGFRPFLPNWQPVQWHSKVRQKSEVDIVVSEDLNGTVKFSSSLPYPNNLNSVLAERLEKWLQLMLMWHPRQRGTDPTYGPNGCFKALDDILNLKLVHILNMVTGTIHTYPVTEDESLQSLKARIQQDTGIPEEDQELLQEAGLALIPDKPATQCISDGKLNEGHTLDMDLVFLFDNSKITYETQISPRPQPESVSCILQEPKRNLAFFQLRKVWGQVWHSIQTLKEDCNRLQQGQRAAMMNLLRNNSCLSKMKNSMASMSQQLKAKLDFFKTSIQIDLEKYSEQTEFGITSDKLLLAWREMEQAVELCGRENEVKLLVERMMALQTDIVDLQRSPMGRKQGGTLDDLEEQARELYRRLREKPRDQRTEGDSQEMVRLLLQAIQSFEKKVRVIYTQLSKTVVCKQKALELLPKVEEVVSLMNEDEKTVVRLQEKRQKELWNLLKIACSKVRGPVSGSPDSMNASRLSQPGQLMSQPSTASNSLPEPAKKSEELVAEAHNLCTLLENAIQDTVREQDQSFTALDWSWLQTEEEEHSCLEQAS

Tests used:
[1] = system: bone marrow derived dendritic cells (DC); assay: Bone marrow derived dendritic cells expressing selective NF-κB activators: cytokine production, antigen presentation, immune response; format: cell-based; conditions: compared to control DC
Description: The disclosure further provides that expression of a selective NF-κB activator can be used to improve the cytokine secretion, antigen presentation and immune response generated by antigen presenting cells, including dendritic cells. The disclosure further provides a method of improving the efficacy of vaccine, including cancer vaccines, by expression of a selective NF-κB activator in the antigen presenting cells ex vivo or in vivo. In one embodiment, the use of selective NF-κB activators increase cytokine production (e.g., TNFα) by antigen presenting cells (e.g., dendritic cells) by more than at least 15%.

NF-κB = assay: NF-κB-Luciferase reporter assay in transfected 293FT cells (normalized to RSV-LacZ); format: cell-based; conditions: NF-κB-Luciferase plus RSV-LacZ reporter
Method: The different constructs were transfected in 293FT cells along with an NF-κB-Luciferase reporeter construct and a RSV-LacZ (normalization control) reporter construct and tested for their ability to activate NF-κB using assay described previously.
The constructs were transfected into 293FT cells along with an NF-κB-Luciferase reporeter construct and a RSV-LacZ reporter construct. Approximately 8 hours, post-transfection, cells were left untreated or treated with AP20187 (100 nM). After approximately 72 hours, cell lysates were prepared and analyzed for NF-κB luciferase and LacZ activities as described previously. NF-κB-Luc activity was normalized for LacZ activity to control for difference in transfection efficiency.

BM-derived DCs = assay: Maturation markers on transduced bone marrow-derived dendritic cells by flow cytometry; format: cell-based, mouse; conditions: for maturation markers CD86, CD40, ICAM-1 and CD80 on DCs: compared to transduced DCs in the control vector group; for retention of CD86 on transduced DCs: culture
Method: Transduction of DCs and flow cytometry. Murine bone marrow-derived Dendritic cells (DCs) are prepared as previously described. Immature DCs are transduced on day 4 at an MOT of 20 with lentiviral vectors as described (Rowe H M et al, Molecular Therapy, 13, 2, 2006) and fed every 4 days with fresh medium containing granulocyte-macrophage colony-stimulating factor (50 ng/ml; from Peprotech). On day 5 posttransduction, DCs are harvested, washed, and blocked for Fc receptors before surface staining for maturation markers with the following biotin-conjugated Abs: anti-CD11c, anti-CD86, and anti-I-Ab (MHC class II) (all from BD Pharmingen); anti-CD40 (from Serotec); and anti-CD80, anti-ICAM-1, and anti-Kb (MHC class I) (all from eBioscience). A hamster isotype control Ab (biotin conjugated) is purchased from BD Pharmingen. Abs are then labeled with streptavidin RPE Cy-5 2o reagent (DakoCytomation) before flow cytometry. Lipopolysaccharide (LPS) (50 ng/ml) (Sigma) is added to untransduced DCs and left overnight as a positive control for maturation. Zymosan A (10 μg/ml) treatment (for 30 min at 37° C.) is used as a control for ERK activation.

lymph node DCs = assay: Lymph node dendritic cells after subcutaneous lentivector injection; format: in vivo, mouse; conditions: s.c. lentivector injection; compared to control vector-injected animals
Method: DC purification from lymph nodes. C57/BL6 mice (Harlan) are injected subcutaneously (s.c.) at the base of the tail with 1×10^8 infectious units (i.u.) lentivector. Six days later, lymph nodes (para-aortical and inguinal) are harvested (cells from mice in each group were pooled), incubated with collagenase CLS-4 (Worthington), and mashed to obtain single-cell suspensions. Fc receptors are blocked before CD11c-positive cells are selected using MACS beads (Miltenyi Biotec).
Following s.c. lentivector injection, transduced DCs are detected in the draining lymph nodes.

EG7.OVA tumor cells = assay: EG7.OVA tumor therapy in C57BL/6 mice; format: in vivo, mouse; conditions: transduced DC injection or direct lentivector injection after lethal dose of EG7.OVA
Method: Tumor therapy. EG7.OVA tumor cells are grown in RPMI plus 0.4 mg/ml G418 (Invitrogen). C57BL/6 mice are challenged with 2×10^6 tumor cells injected s.c. into the flank and then vaccinated.
Mice are inoculated with a lethal dose of EG7.OVA tumor cells before vaccinating them either with transduced DCs or with the human NEMO-K277A-, human NEMO-K277A-deltaV249-K255-, mouse NEMO-K270A- and IKK2-S177E-S181E-vectors directly. All mice are shown to develop tumors.

| Molecule | cytokine production, antigen presentation and immune response of DC [1] | activation of NF-κB (NF-κB) | maturation markers CD86, CD40, ICAM-1 and CD80 on DCs (BM-derived DCs) | retention of CD86 on transduced DCs (BM-derived DCs) | CD86 on lymph node DCs (lymph node DCs) | number of tumor-free mice (EG7.OVA tumor cells) |
| --- | --- | --- | --- | --- | --- | --- |
| K13-opt: vFLIP K13 encoded by human codon optimized nucleic acid sequence | superior cytokine production, antigen presentation, and immune response | – | – | – | – | – |
| hNEMO-K277A: human NEMO mutant K277A, constitutively active selective NF-κB activator used as accessory module | superior cytokine production, antigen presentation, and immune response | strong activation | upregulated | retain their upregulated CD86 for several weeks in culture | upregulation of CD86 | higher than that in the control group |
| hNEMO-K277G: hNEMO mutant in which Lys (K) at residue 277 is replaced by G | – | weak activation | – | – | – | – |
| hNEMO-K277I: hNEMO mutant in which Lys (K) at residue 277 is replaced by I | – | weak activation | – | – | – | – |
| hNEMO-K277L: hNEMO mutant K277L | – | NF-κB activation | – | – | – | – |
| B1 | superior cytokine production, antigen presentation, and immune response | NF-κB activation | upregulated | retain their upregulated CD86 for several weeks in culture | upregulation of CD86 | higher than that in the control group |
| B2 | superior cytokine production, antigen presentation, and immune response | – | – | – | – | – |
| B3 | superior cytokine production, antigen presentation, and immune response | strong activation | upregulated | retain their upregulated CD86 for several weeks in culture | upregulation of CD86 | higher than that in the control group |
| B4 | superior cytokine production, antigen presentation, and immune response | – | upregulated | retain their upregulated CD86 for several weeks in culture | upregulation of CD86 | higher than that in the control group |
